The values that follow are results of earlier work, collected in paper PMC10215765.

For this data set, the target named is Band 3 cytoplasmic N-terminal domain (Homo sapiens) (UniProt P02730).
Sequence of UniProt P02730 (P02730 1-379): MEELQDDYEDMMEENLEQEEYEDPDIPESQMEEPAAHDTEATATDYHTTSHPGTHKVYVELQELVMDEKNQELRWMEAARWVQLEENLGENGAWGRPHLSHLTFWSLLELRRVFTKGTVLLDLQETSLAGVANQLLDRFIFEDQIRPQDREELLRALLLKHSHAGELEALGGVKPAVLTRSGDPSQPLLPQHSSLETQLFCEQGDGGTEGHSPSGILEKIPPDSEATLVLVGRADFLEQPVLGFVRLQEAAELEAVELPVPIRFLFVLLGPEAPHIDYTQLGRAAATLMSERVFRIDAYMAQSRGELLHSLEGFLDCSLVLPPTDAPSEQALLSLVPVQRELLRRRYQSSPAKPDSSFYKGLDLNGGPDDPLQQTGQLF

Usually Kd stands for the equilibrium constant for the complex coming apart. Take Peroxiredoxin 2 (from UniProt P32119): the Kd was 34 nM.
